From IntAct's records for PubMed 22949657

B1: Tumor necrosis factor alpha-induced protein 8-like protein 2 (Homo sapiens), Q6P589 (parent)
chain: MESFSSKSLALQAEKKLLSKMAGRSVAHLFIDETSSEVLDELYRVSKEYTHSRPQAQRVIKDLIKVAIKVAVLHRNGSFGPSELALATRFRQKLRQGAMTALSFGEVDFTFEAAVLAGLLTECRDVLLELVEHHLTPKSHGRIRHVFDHFSDPGLLTALYGPDFTQHLGKICDGLRKLLDEGKL

Variants of: B1
Conditions: with RAC1, P63000-1

| Variant | effect of a mutation on the interaction |
| --- | --- |
| MESFSSKSLALQAEKKLLSKMAGASVAHLFIDETSSEVLDELYRVSKEYTHSRPQAQRVIKDLIKVAIKVAVLHRNGSFGPSELALATRFRQKLRQGAMTALSFGEVDFTFEAAVLAGLLTECRDVLLELVEHHLTPKSHGRIRHVFDHFSDPGLLTALYGPDFTQHLGKICDGLRKLLDEGKL | disrupting interaction strength |
| MESFSSKSLALQAEQQLLSKMAGRSVAHLFIDETSSEVLDELYRVSKEYTHSRPQAQRVIKDLIKVAIKVAVLHRNGSFGPSELALATRFRQKLRQGAMTALSFGEVDFTFEAAVLAGLLTECRDVLLELVEHHLTPKSHGRIRHVFDHFSDPGLLTALYGPDFTQHLGKICDGLRKLLDEGKL | decreasing interaction strength |
